Reference: patent EP3085709A1 (Genor Biopharma Co., Ltd, dated 2016)

T1: recombinant human RANKL (soluble, Gly136-Asp317, N-terminal 10 His, expressed in CHO cells) (human, UniProt O14788 136-317)
T1 sequence: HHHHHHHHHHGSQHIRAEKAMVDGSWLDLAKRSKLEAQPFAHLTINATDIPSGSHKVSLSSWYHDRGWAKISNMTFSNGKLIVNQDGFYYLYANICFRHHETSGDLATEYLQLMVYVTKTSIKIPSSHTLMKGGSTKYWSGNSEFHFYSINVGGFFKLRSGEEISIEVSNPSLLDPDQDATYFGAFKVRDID

T2: monkey RANKL (cynomolgus monkey, R & D Systems) (cynomolgus monkey, UniProt A0A7N9DBU4 140-317)
T2 construct: also called cynomolgus monkey RANKL
T2 sequence: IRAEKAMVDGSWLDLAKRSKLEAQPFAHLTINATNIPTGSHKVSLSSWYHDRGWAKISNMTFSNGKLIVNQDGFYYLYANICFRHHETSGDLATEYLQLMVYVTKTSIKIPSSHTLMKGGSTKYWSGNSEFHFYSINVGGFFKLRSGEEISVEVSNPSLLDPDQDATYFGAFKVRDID

T3: mouse RANKL (R & D Systems) (mouse, UniProt O35235 158-316, limits assumed)
T3 construct: also called murine RANKL
T3 sequence (looked up): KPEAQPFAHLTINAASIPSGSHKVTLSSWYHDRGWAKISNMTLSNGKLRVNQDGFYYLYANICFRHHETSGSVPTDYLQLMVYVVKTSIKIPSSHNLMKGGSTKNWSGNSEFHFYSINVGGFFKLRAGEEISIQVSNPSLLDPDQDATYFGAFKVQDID

B1: 114-7.38.48 (antibody, V domains shown)
VH: DVQLQESGPDLVKPSQSLSLTCTVTGYSITSAYSWHWIRQFPGNKLEWMGYIHFSGVTNYNPSLKSRISITRDASKNQFFLQLSSVTTEDTATYYCATRRETGFTYWGQGTLVTVSA
VL: DIVLTQSPATLSVTPGDSVSLSCRASQSISKNLHWYQQKSHESPRLLIKYASQSISGIPSRFSGSGSGTDFTLSINSVETEDFGIYFCQQINSWPLTFGAGTKLELK
notes: Murine monoclonal antibody from hybridoma
B2: 114-2.222 (antibody, V domains shown)
VH: EVQLQQSGAELVKPGASVKLSCTTSGFNIKATYIHWVQQRPEQGLEWIGRIDPANGNTKYDSKFQGKATITADTSSNTAYLQLSSLTSEDTAVYFCARSLHYYVFFDYWGQGTTLTVSS
VL: DIQMTQTTSSLSASLGDRVTISCSASQGISNYLNWYQQKPDGTVKLLIYSTSSLHSGVPSRFSGSGSGTDYSLTISSLEPEDIATYYCQQYSKLPLTFGAGTKLELKR
notes: as for B1
B3: 114-5.9.4 (antibody, V domains shown)
VH: EVQLQQSGAELVKPGASVKLSCTASGFNLKGTYIHWVKQRPGQGLEWIGRIDPANANTKYDPKFQGKATIRTDTSSNTAYLQLSSLTSEDTAVYFCSSPSGHYDVWFAYWGQGTLVTVSP
VL: DIQMTQPTSSLSASLGDTVTISCSASQDISNYLNWYQQKPDGTLKLLIYYTSSLHSGVPSRFSGSGSGTDYSLTISNLEPEDIATYYCQQFSKLPLTFGAGTKLELKR
notes: as for B1
B4: 114-2.402 (antibody, V domains shown)
VH: EVQLQQSGTELVKPGASVKLSCTLFGFNIKATYMHWVRQRPEQGLEWIGRIDPPNGNTKYDPKFQDKATIKVDTSSNTAYLQLSSLTSEDTAVYYCAREFNRYDVWLAYWGQGTLVTVSA
VL: DIQMTQTTSSLSASLGDRVTISCSASQGVSNYLNWYQQKPDGTVKLLIYSTSSLHSGVPSRFSGSGSGTDYSLTISNLEPEDVATYYCQQYSKLPFTFGSGTKLEIKR
notes: as for B1
B5: G2 (antibody, human IgG2, kappa, V domains shown)
VH: QVQLVQSGAELKKPGASVKLSCKASGYTFTTYWLQWVRQAPGQGLEWMGAIYPGPGNTKYTQKFKDRFTITADKSKSTAYMQLNSLKSEDSAVYYCARRGSRRGIAYWGQGTLVTVSA
VL: NIVLTQSPASLSVSLGQRATISCRASESVDSYGRSFMHWYQQRPGQAPRLLIYLASNLESGVPARFSGSGSRTDFTLTISSVEAEDEATYYCQQDNEDPYTFGGGTKLEIKG
notes: 293F cells
B6: G5 (antibody, human IgG2, kappa, V domains shown)
VH: QVQLVQSGAELKKPGASVKLSCKASGYTFTTYWLQWVRQAPGQGLEWMGAIYPGPGNTKYTQKFKDRFTITADKSKSTAYMQLNSLKSEDSAVYYCARRGSRRGIAYWGQGTLVTVSA
VL: NIVLTQSPASLSVSLGQRATISCRASESVDSYGRSFMHWYQQKPGQAPKLLIYLASNLESGVPSRFSGSGSRTDFTLTISRVEAEDAATYYCQQDNEDPYTFGGGTKLEIKG
notes: 293F cells
B7: G6 (antibody, human IgG2, kappa, V domains shown)
VH: QVQLVQSGAELVQPGASVKLSCKASGYTFTTYWLQWVRQTPGQGLEWMGAIYPGPGNTKYTQKFKDRVTITADTSTSTAYMQLNSLRSEDSAVYYCARRGSRRGIAYWGQGTLVTVSA
VL: NIVLTQSPASLSVSLGQRATISCRASESVDSYGRSFMHWYQQRPGQAPRLLIYLASNLESGVPARFSGSGSRTDFTLTISSVEAEDEATYYCQQDNEDPYTFGGGTKLEIKG
notes: 293F cells
B8: G7 (antibody, human IgG2, kappa, V domains shown)
VH: QVQLVQSGAELVQPGASVKLSCKASGYTFTTYWLQWVRQTPGQGLEWMGAIYPGPGNTKYTQKFKDRVTITADTSTSTAYMQLNSLRSEDSAVYYCARRGSRRGIAYWGQGTLVTVSA
VL: NIVLTQSPASLSVSLGQRATISCRASESVDSYGRSFMHWYQQKPGQAPKLLIYLASNLESGVPSRFSGSGSRTDFTLTISAVEAEDAATYYCQQDNEDPYTFGGGTKLEIKG
notes: 293F cells
B9: G3 (antibody, human IgG2, kappa, V domains shown)
VH: QVQLVQSGAELKKPGASVKLSCKASGYTFTTYWLQWVRQAPGQGLEWMGAIYPGPGNTKYTQKFKDRFTITADKSKSTAYMQLNSLKSEDSAVYYCARRGSRRGIAYWGQGTLVTVSA
VL: NIVLTQSPASLSVSLGQRATISCRASESVDSYGRSFMHWYQQKPGQAPKLLIYLASNLESGVPSRFSGSGSRTDFTLTISAVEAEDAATYYCQQDNEDPYTFGGGTKLEIKG
notes: 293F cells
B10: G9 (antibody, human IgG2, kappa, V domains shown)
VH: QVQLVQSGAELVQPGASVKLSCKASGYTFTTYWLQWVRQTPGQGLEWMGAIYPGPGNTKYTQKFKDRVTITADTSTSTAYMQLNSLRSEDSAVYYCARRGSRRGIAYWGQGTLVTVSA
VL: NIVLTQSPASLSVSLGQRATISCRASESVDSYGRSFMHWYQQKPGQAPKLLIYLASNLESGVPSRFSGSGSRTDFTLTISRVEAEDAATYYCQQDNEDPYTFGGGTKLEIKG
notes: 293F cells
B11: 114-7.19.12 (antibody, V domains shown)
VH: QVQLQQSGAELASPGASVKLSCKASGYTFTTYWLQWVKQRPGQGLEWIGAIYPGPGNTKYTQKFKDKATLTADKSASTAYMQLNSLTSEDSAVYYCARRGSRRGIAYWGQGTLVTVSA
VL: NIVLTQSPASLAVSLGQRATISCRASESVDSYGRSFMHWYQQRPGQPPTLLIYLASNLESGVPVRFSGSGSRTDFTLTIDPVEADDAATYYCQQDNEDPYTFGGGTKLEIK
notes: Murine monoclonal antibody purified from hybridoma supernatant
B12: 114-7.37.26 (antibody, V domains shown)
VH: QVQLQQSGAELASPGASVKLSCKTSGYTFTTYWLQWVKQRPGQGLEWIGAIYPGPGNTKYTQKFKDKATLTADKSASTAYMQLSSLTSEDSAVYYCARRGSRRGIAYWGQGTLVTVSA
VL: NIVLTQSPASLAVSLGQRATISCRASESVDSYGRSFMHWYQQRPGQPPTLLIYLASNLESGVPARFSGSGSRTDFTLTIDPVEADDAATYYCQQDNEDPYTFGGGTKLEIK
notes: as for B1
B13: 114-5.7.14 (antibody, V domains shown)
VH: EVQLQQSGAELVKPGASVKLSCTASGFKIKDTYMHWVRQRPEQGLEWIGRIDSANGNIKYDPKFQGKATITADTSSKTAYLHLSSLTFEDTAVYYCSRPKSNYDFWLPYWGQGTLVTVSA
VL: DIQMTQTTSSLSASLGDRVTISCSASQGISNYLNWYQQKPDGTVKLLIYYTSSLHSGVPSRFSGSGSGTDYSLTISNLEPEDIATYYCQQYSKLPLTFGAGTKLELK
notes: as for B1
B14: 114-6.6.29 (antibody, V domains shown)
VH: DVKLVESGGGLVKPGGSLKLSCAASGFTFSSYTMSWVRQTPEKRLEWVATISSGGSYTYYPDSVKGRFTISRDNAKNTLYLQMSSLKSEDTAMYYCTRDWDYYGTTYVGGYAMDYWGQGTSVTVSS
VL: DVLMTQTPLSLPVSLGDQASISCRSSQSIVHSNGNTYLEWYLQKPGQSPKLLIYKVSNRFSGVPDRFSGSGSGTDFTLKISRVEAEDLGVYYCFQGSHVPWTFGGGTKLEIK
notes: as for B1

Tests used:
[1] = target: T1, recombinant human RANKL (soluble, …); assay: cell-based or functional assay
[2] = target: T2, monkey RANKL (cynomolgus monkey, R & D …); assay: direct ELISA, monkey RANKL coated
[3] = target: T3, mouse RANKL (R & D Systems); assay: direct ELISA, mouse RANKL coated 1 µg/ml
[4] = target: T1, recombinant human RANKL (soluble, …); assay: direct ELISA, human RANKL coated 1 µg/ml
[5] = target: T1, recombinant human RANKL (soluble, …); assay: competitive ELISA, RANK-Fc coated, antibody mixed with human RANKL (0.6 µg/ml, equal volume)
[6] = target: T1, recombinant human RANKL (soluble, …); assay: ELISA, hRANKL coated 1 µg/ml; concentration at 50% Bmax; Plate#01
[7] = target: T1, recombinant human RANKL (soluble, …); assay: competitive ELISA, RANK-Fc coated, antibody pre-incubated with 0.25 µg/ml hRANKL; Plate#01
[8] = target: T1, recombinant human RANKL (soluble, …); assay: ELISA, hRANKL coated 1 µg/ml; concentration at 50% Bmax; Plate#02
[9] = target: T1, recombinant human RANKL (soluble, …); assay: competitive ELISA, RANK-Fc coated, antibody pre-incubated with 0.25 µg/ml hRANKL; Plate#02

| Binder | EC50 value (ng/ml), inhibition of RAW264.7 differentiation [1] | EC50 [2] | binding result [3] | EC50 [4] | EC50 [5] | EC50 [6] | IC50 [7] | EC50 [8] | IC50 [9] |
| --- | --- | --- | --- | --- | --- | --- | --- | --- | --- |
| B1 | 585 ng/mL | 0.0198 µg/mL | no binding | 0.0185 µg/mL | 0.93 µg/mL | – | – | – | – |
| B2 | 311 ng/mL | 0.0153 µg/mL | no binding | 0.0137 µg/mL | 0.8 µg/mL | – | – | – | – |
| B3 | 340 ng/mL | 0.00967 µg/mL | no binding | 0.0118 µg/mL | 0.28 µg/mL | – | – | – | – |
| B4 | 396 ng/mL | 0.0111 µg/mL | no binding | 0.0112 µg/mL | 0.93 µg/mL | – | – | – | – |
| B5 | – | – | – | – | – | 0.00255 µg/mL | 0.3 µg/mL | – | – |
| B6 | – | – | – | – | – | 0.00221 µg/mL | 0.29 µg/mL | – | – |
| B7 | – | – | – | – | – | 0.00147 µg/mL | 0.29 µg/mL | – | – |
| B8 | – | – | – | – | – | 0.00182 µg/mL | 0.29 µg/mL | – | – |
| B9 | – | – | – | – | – | 0.00187 µg/mL | 0.31 µg/mL | – | – |
| B10 | – | – | – | – | – | – | – | 0.00328 µg/mL | 0.5 µg/mL |
| B11 | 267 ng/mL | 0.0129 µg/mL | no binding | 0.00993 µg/mL | 0.28 µg/mL | – | – | – | – |
| B12 | 470 ng/mL | 0.016 µg/mL | no binding | 0.0159 µg/mL | 0.29 µg/mL | – | – | – | – |
| B13 | 315 ng/mL | 0.00686 µg/mL | no binding | 0.00623 µg/mL | 0.33 µg/mL | – | – | – | – |
| B14 | 799 ng/mL | 0.0104 µg/mL | no binding | 0.0117 µg/mL | 0.39 µg/mL | – | – | – | – |
